For one molecule, Kd results are on record in article PMC1839166, “Type III Effector Activation via Nucleotide Binding, Phosphorylation, and Host Target Interaction” (PLoS Pathogens, 2007).

Experiment [1] concerns the target T1, avirulence protein B (AvrB), wild type (Pseudomonas syringae pv. glycinea), P13835. As to the kind of experiment: ITC; VP-ITC microcalorimeter; RIN4_(142–176) peptide (50 to 450 μM) titrated in 6-μl injections into 5 to 25 μM wild-type or variant AvrB, stirring at 255 rpm; wild-type AvrB 6 μM with full-length RIN4 120 μM; nonbinding confirmed at as much as 25 μM and 450 μM. The conditions noted are these: remark: other sources report otherwise. In general terms: In ITC the heat of successive injections is recorded.

The target in experiment [2] is T1, avirulence protein B (AvrB), wild type …. The experiment is described as above. The conditions noted are these: remark: other sources report otherwise. The source holds these as a separate data set.

T1 sequence (P13835 whole entry): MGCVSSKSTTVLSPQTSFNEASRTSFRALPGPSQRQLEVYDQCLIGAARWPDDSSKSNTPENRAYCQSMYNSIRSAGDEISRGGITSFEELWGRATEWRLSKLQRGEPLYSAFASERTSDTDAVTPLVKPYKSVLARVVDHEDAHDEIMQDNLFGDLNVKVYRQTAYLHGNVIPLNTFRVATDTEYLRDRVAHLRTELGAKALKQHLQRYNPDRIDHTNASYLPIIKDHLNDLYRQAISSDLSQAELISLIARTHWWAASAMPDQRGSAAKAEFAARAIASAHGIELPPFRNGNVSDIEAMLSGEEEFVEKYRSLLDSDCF

B1: full-length RIN4, Q8GYN5 1-211 (natural protein)
chain: MARSNVPKFGNWEAEENVPYTAYFDKARKTRAPGSKIMNPNDPEYNSDSQSQAPPHPPSSRTKPEQVDTVRRSREHMRSREESELKQFGDAGGSSNEAANKRQGRASQNNSYDNKSPLHKNSYDGTGKSRPKPTNLRADESPEKVTVVPKFGDWDENNPSSADGYTHIFNKVREERSSGANVSGSSRTPTHQSSRNPNNTSSCCCFGFGGK
The term Kd denotes the free concentration of one partner at which half of the binding sites on the other are occupied at equilibrium, for simple one-to-one binding. Consider B1, for which the Kd in experiment [1] amounted to 4000 nM; in experiment [2], 1000 nM.
